Experimental data from the nanobody polyreactivity screen of Harvey et al. (2022).

Assay: yeast display, Sf9 membrane polyspecificity reagent, FACS + sequencing; frameworks hold sequencing errors
Method in brief: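 A nanobody's polyreactivity label depends on the gate it was sorted from. Yeast display cells were stained with 10% biotinylated, detergent-solubilized Sf9 membrane reagent for 1 hour at 4 °C, enriched on streptavidin microbeads and sorted by FACS. The low and high (top ~1%) gates were set on anti-HA fluorescence for expression and streptavidin fluorescence for reagent binding.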

| Sequence | polyreactivity (PSR sort gate) |
| --- | --- |
| QVQLVESGGGLVQAGGSLRLSCAASGFIFIYNAMGWYRQAPGKERELVAAITGSDGGTFYADSVKGRFTISRDNAKNTVYLQMNSLKPEDTAVYYCNADNGSRQSRDGYESWGQGTQVTVSS | low polyreactivity |
| QVQLVESGGGLVQAGGSLLLSSAASGRTFWMYAMGWNRQAPGKESELVAGITWRGGSTYYADSVKGRFTISRDIAKNTVYLQMNSQKPEDTAVYYFAAEFWVSRSIWVYYYWGQGTQVTVSS | high polyreactivity |
| QVQLVESGGGLVQAGGSLRLSCAASGSTFNIYVMGWYRQAPGKERELVADITTSGRTYYADSVKGRFTISRDNAKNTVYVQMNSLKPEDTAVYYCADATGTYGRGGYYWGQGTQLTVSS | high polyreactivity |
| QVHLVESGGVLVQAGGSLRLSCAASGSIFDDYAMGWYRQAPGKERELVAAISSSGTSTYYADSVKGRFTISRDTANNTVYLQMNSLKPEDTAVYYCAARSAILDYWGQGTQVTVSS | low polyreactivity |
| QVQLVDSGGGLVQAGGSLRLSCAASGSIFYRNAMGWSRQAPGKERELVAAITRGGSTYYADSVKGRFTISRDNAKNTVYLQMNSLKPEDTAVYYCNAYGGFAYSYDYWGQGTQVTVSS | high polyreactivity |
| QVQLVESGGGLVQAGGSLRLSCAASGSTFFQYAMGWYRQAPGKERELVAAITSGGSTNYADSVKGRFTISRDNAKNTVYLQMNSLKPEDTAVYYCAAESKSGAFDYWGQGTQVTVSS | low polyreactivity |
| QVQLVESGGGLVQAGGRLRLSCAASGLIFYKYAMGWYRQAPGKERELVAAISSRTGSTSYADSVKGRFTISRDNAKNTVYLQMNSLKPEDTAVYYCAARPRYNEYGYWGQGTQVTVSS | high polyreactivity |
| QVQLVESGGGLVQAGGSLRLSCAASGITINGYVMGWYRQAPGKERELVAAITSGARTYYADSVKGRFTISRDNAKNTVYLQMNSLKPEDTAVYYCAASIWLYRYYYWGQGTQVTVSS | high polyreactivity |
| QVQLVESGGGLVQAGGSLRLSCAASGRTFGRYAMGWYRQAPGKERELVATISVSSGSTYYADSVKGRFTISRDTAKNTVYLQMNSLKPEDTAVYYCNAVYGRQYRGYNYKYYYWGQGTQVTVSS | high polyreactivity |
| QVQLVESGGALVQAGGSLRLSCAASGSIFGEYTMGWYRQAPGKEWELVAAIRSGGDTYYADSVKGRFTLSRDKAKNTVYLQMNSLKPEDTAVYYCNAYWVRHYIMDYWGQGTQVTVSS | low polyreactivity |
| QVQLVESGGGLVQAGGSLRLSCAASGSTFYWYTMGWYRQAPGKEREMVATITSVGRTNYADSVKGRFTISRDNAKNTVYLQMNSLKPEDTAVYYCAASKARWPRGGSKYYYWGQGTQVSVSS | high polyreactivity |
| QVQLVESGGGLVQAGGSLRLSCAASGFTFGWYTMGWYRPAPGKERELVAAISLNGGSTYYADSVKGRFTISRDNAKNTVYLQMNSLKPEDTAVYYCAIGYRWPYYPYDYWGQGTQVTVSS | low polyreactivity |
| QVQLVESGGGLVQAGGSLRLSCAASGSTFRWYTMGWYRQATGKERDLVAAINQSGSRTYYADSVKGRFTISRDNAKNTVYLQMNSLKPEDTAVYYCNAKSYKSPHTYYYWGQGTQVTVSS | high polyreactivity |
| QVQLVESGGGLVQAGGSLRLSCAEYAMGCYRQAPGKERELVATITARGGSTYADSVKGRFTISRDNAKNTVYLQMNSLKPEDTAVYYCNADYGLFYRATFYGYDYWGQCTQVTVSS | low polyreactivity |
| QVQLVESGGGLVQAGGSLRLSCAASGRTFTTYAMGWYRQAPGKERELVASISGSGGSTYFADSVKGRFTISRDNAKNTVYLQMNSLKPEDTAVYYCATADYYHGGYYYPYDDYWGQGTQVTVSS | low polyreactivity |
| QVQLVESGGGIVQAGGSLRLSCAASGRIFDNYVLGWYRQAPGKERELVAAISSGGGTYYADSVKGRFTISRDNAKNTVYLQMNSLKPEDTAVYYCAKRRVYDRSFGRYDYWGQGTQVTVSS | low polyreactivity |
| QVQLVESGGGLVQPGGSLRLSCAASGRTFVPYAMGWYRQAPGKEREFVAVITWGGGSTYYADSVKGRFTISRDNAKNTVYLQMNSLKPEDTAVYYCDARVYYHYDYWGQGTQVTVSS | high polyreactivity |
